How the values were obtained:
[1] = biological target: T1, Human CD3 epsilon (CD3ε), on primary human pan T cells (human, UniProt P07766 23-207); experiment: cell-based or functional assay
[2] = biological target: T2, human PSMA on prostate cancer cell lines (22RV1, C4-2B) (human, UniProt Q04609 1-750); experiment: flow cytometry on C4-2B cells, four-parameter fit
T2 construct: also called PSMA-expressing cell lines
Description: Molecule concentrations ranged from 500-0 nM over 12-points at 3-fold dilution. […] Values reported in the Table 69 were generated by fitting the data to a four-parameter function for ligand binding generating values for y-min, y-max, EC50, and Hill. EC90 were calculated using the equation EC90=[…]\hat{ }(1/Hill)*EC50.

recombinant human PSMA = biological target: T3, recombinant human PSMA (human, UniProt Q04609 44-750); experiment: SPR (Biacore 8K), antibody captured on anti-Fc, PSMA in solution
T3 construct: also called hu PSMA; prostate-specific membrane antigen
T3 sequence (Q04609 44-750 limits assumed): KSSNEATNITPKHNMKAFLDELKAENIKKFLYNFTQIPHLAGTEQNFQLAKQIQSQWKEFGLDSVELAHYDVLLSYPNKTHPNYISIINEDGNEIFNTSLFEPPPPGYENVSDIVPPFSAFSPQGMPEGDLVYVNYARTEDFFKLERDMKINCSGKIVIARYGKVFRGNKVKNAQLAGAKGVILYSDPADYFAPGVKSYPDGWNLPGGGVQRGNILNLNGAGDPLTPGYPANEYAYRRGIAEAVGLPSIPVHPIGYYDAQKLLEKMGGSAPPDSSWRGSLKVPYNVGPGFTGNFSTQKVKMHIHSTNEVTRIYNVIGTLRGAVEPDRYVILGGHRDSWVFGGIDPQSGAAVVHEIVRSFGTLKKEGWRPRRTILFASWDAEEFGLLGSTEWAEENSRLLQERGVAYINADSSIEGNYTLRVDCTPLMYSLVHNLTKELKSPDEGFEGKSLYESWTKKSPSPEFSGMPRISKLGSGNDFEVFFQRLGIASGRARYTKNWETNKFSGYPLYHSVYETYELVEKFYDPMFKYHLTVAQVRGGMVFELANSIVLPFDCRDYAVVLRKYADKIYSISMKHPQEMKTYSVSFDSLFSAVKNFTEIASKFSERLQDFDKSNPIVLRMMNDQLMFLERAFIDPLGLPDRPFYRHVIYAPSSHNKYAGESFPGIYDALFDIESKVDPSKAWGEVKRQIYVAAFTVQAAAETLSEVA
Description: The antibodies were captured on a goat anti-Fc antibody-modified C1 chip and titrated with 3-fold serial dilutions of PSMA antigen spanning concentrations of 1 nM to 100 nM human PSMA. The association and dissociation were monitored for 3 and 30 minutes, respectively, using a flow rate of 50 μL/min. Raw binding data was referenced by subtracting the analyte binding signals from blanks and analyzed using a 1:1 Langmuir binding model by the Biacore Insight evaluation software to obtain the kinetics which were used to calculate the binding affinity. The anti-PSMA were captured using an anti-human Fc antibody and the antigens were injected in solution.

[3] = biological target: T1, Human CD3 epsilon (CD3ε), on primary …; experiment: cell-based or functional assay; remark: listed apart in the source
[4] = biological target: T1, Human CD3 epsilon (CD3ε), on primary …; experiment: flow cytometry on human T cells, anti-human IgG Fc A647 detection
Description: The bsAbs were assayed for their abilities bind T cells and to induce T-cell mediated cytotoxicity against H929 cells (ATCC@CRL-9068™). […] Stain buffer with no antibody was added to bottom 4 wells and assign as background control (secondary antibody alone). Parental Cris7b, CD3B695 (bivalent mAb controls) and CD3B375 (bsAb which was monovalent for Cris-7b) were added also with full dose-response curves.
Frozen T-cells were thawed in a 37° C. water bath and transferred gently into conical tube containing warm 5 mL media (RPMI+10% FBS)/1 vial of 1×10⁶ cells. Cells were mixed and centrifuged for 5 minutes at 400×g followed by resuspension in flow staining buffer, and counted and viability checked. Cells were then plated in 50 uL/50,000 cells/well into assay plates. Assay positive control mAb was added in the first column in quadruplicates at 2× at 20 nM in the bottom 4 wells. Stain buffer with no mAb was added to the top 4 wells and assigned as background controls (secondary antibody alone). Serially diluted antibody samples were added at 50 uL/well using Intergra Viaflo according to the attached plate maps and incubated for 1 hr at 37° C. After one hour incubation, 150 uL staining buffer were added to all wells, and cells were spun at 500×g for 5 minutes to pellet cells. Cells were then washed prior to addition of Alexa Fluor 647 (A647) conjugated anti human IgG Fc specific secondary detection antibody at 2 ug/mL in staining buffer. Secondary detection antibody was added at 50 uL/well to the washed cells. Plates were covered with foil and incubated for 30 minutes on ice or in the fridge. 150 uL staining buffer were added to all wells, and cells were spun at 500×g for 5 min to pellet cells. Cells were resuspended in 20 uL running buffer containing 1:1000 dilution of SYTOX™ green dead cell stain and run plates on iQue® Screener flow cytometer (Essen BioScience, Inc.). Briefly, cells were gated on FCS vs. SCS dot plot to eliminate debris. Singlets were gated on SCS-A vs SCS-H dot plot and from singlet population, live cells gated choosing BL1 channel for low/negative with SYTOX™ green viability stain (Thermo Fisher).

T2 sequence (Q04609 whole entry): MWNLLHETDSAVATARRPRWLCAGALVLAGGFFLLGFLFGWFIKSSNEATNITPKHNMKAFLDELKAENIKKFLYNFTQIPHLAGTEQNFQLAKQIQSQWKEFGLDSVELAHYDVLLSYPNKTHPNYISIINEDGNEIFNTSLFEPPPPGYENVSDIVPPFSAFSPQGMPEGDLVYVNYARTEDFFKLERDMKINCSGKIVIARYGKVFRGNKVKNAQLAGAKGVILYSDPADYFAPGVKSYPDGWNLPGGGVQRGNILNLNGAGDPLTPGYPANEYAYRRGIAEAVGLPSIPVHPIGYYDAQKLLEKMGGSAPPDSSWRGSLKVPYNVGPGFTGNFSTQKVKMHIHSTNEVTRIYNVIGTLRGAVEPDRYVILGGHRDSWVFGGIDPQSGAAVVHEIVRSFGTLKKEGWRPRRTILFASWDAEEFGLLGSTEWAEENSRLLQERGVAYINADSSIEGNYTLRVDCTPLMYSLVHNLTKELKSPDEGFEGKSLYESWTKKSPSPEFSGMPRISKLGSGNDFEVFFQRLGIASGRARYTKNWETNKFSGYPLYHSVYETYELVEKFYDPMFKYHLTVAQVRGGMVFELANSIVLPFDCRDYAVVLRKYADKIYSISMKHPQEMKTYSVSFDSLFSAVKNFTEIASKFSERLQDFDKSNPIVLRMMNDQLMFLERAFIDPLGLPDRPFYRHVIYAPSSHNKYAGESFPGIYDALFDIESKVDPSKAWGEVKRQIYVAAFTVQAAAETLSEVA
T1 sequence (P07766 23-207 limits assumed): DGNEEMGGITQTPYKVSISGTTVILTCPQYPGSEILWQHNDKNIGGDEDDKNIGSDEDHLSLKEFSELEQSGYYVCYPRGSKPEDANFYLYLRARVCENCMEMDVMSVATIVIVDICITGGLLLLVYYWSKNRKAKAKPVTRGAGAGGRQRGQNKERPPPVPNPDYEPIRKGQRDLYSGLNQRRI

Row | Binder | EC50, Cytotoxicity [1] [nM] | EC50 [2] [nM] | EC90 [2] [nM] | Y-max [2] | Y-min [2] | Kd (recombinant human PSMA) [nM] | koff (recombinant human PSMA) [s⁻¹] | kon (recombinant human PSMA) [M⁻¹ s⁻¹] | H929 Killing EC50 [3] [nM] | EC50 [4] [nM]
1 | GCDB131 (bispecific antibody, human IgG1, kappa, L234A L235A) heavy: QVQLLQSAAEVKKPGESLKISCKGSGYTFTRSTMHWVRQTPGKGLEWMGYINPSSAYTNYNQKFKDQVTISADKSISTAYLQWSSLKASDTAMYYCARPQVHYDYNGFPYWGQGTLVTVSSASTKGPSVFPLAPSSKSTSGGTAALGCLVKDYFPEPVTVSWNSGALTSGVHTFPAVLQSSGLYSLSSVVTVPSSSLGTQTYICNVNHKPSNTKVDKKVEPKSCDKTHTCPPCPAPEAAGGPSVFLFPPKPKDTLMISRTPEVTCVVVSVSHEDPEVKFNWYVDGVEVHNAKTKPREEQYNSTYRVVSVLTVLHQDWLNGKEYKCKVSNKALPAPIEKTISKAKGQPREPQVYVYPPSREEMTKNQVSLTCLVKGFYPSDIAVEWESNGQPENNYKTTPPVLDSDGSFALVSKLTVDKSRWQQGNVFSCSVMHEALHNHYTQKSLSLSPG light: EIVLTQSPSAMSASVGDRVTITCSASSSVSYMNWYQQKPGKVPKRLIYDSSKLASGVPSRFSGSGSGTEYTLTISSLQPEDFATYYCQQWSRNPPTFGQGTMLEIKRTVAAPSVFIFPPSDEQLKSGTASVVCLLNNFYPREAKVQWKVDNALQSGNSQESVTEQDSKDSTYSLSSTLTLSKADYEKHKVYACEVTHQGLSSPVTKSFNRGEC not shown | 0.0334 | – | – | – | – | – | – | – | – | –
2 | PSMB1047 (bispecific antibody, human IgG1, kappa, L234A L235A, HC1 (ZWA): B23B62-Fab; LC2 is NA) heavy: not shown light: not shown QSVLTQPPSVSVAPGQTARITCGGNNSGSKSVHWYQQKPGQAPVLVVYDDSDRPSGIPERFSGSNSGNTATLTISRVEAGDEADYYCQVWDSSSDHGVFGGGTKLTVLGGSEGKSSGSGSESKSTGGSQVQLVESGGGEVQPGRSLRLSCAASGFSFSGYGMHWVRQAPGKGLEWVAVMSYDGSNRFYVDSVRGRFSISRDNSKNTLYLQMNSLRPEDTAVYYCARDTVWGSHPDAFDIWGQGTVVTVSSEPKSSDKTHTCPPCPAPEAAGGPSVFLFPPKPKDTLMISRTPEVTCVVVSVSHEDPEVKFNWYVDGVEVHNAKTKPREEQYNSTYRVVSVLTVLHQDWLNGKEYKCKVSNKALPAPIEKTISKAKGQPREPQVYVLPPSREEMTKNQVSLLCLVKGFYPSDIAVEWESNGQPENNYLTWPPVLDSDGSFFLYSKLTVDKSRWQQGNVFSCSVMHEALHNHYTQKSLSLSPG | – | 22 | 71 | 1.6e+06 | 79000 | 2.52 | 0.00175 | 694000 | – | –
3 | PSMB1075 (bispecific antibody, human IgG1, kappa, L234A L235A, HC1 (ZWA): B23B62-Fab; LC2 is NA) heavy: not shown light: not shown EVQLVESGGGVVQPGRSLRLSCAASGFSFSGYGMHWVRQAPGKGLEWVAVISYDGSNKYYADSVKGRFTISRDNSKNTLYLQMNSLRVEDTAVYYCARDRIWGSRGYYYGMDVWGQGTTVTVSSGGSEGKSSGSGSESKSTGGSQSALTQPASVSGSPGQSITISCTGASSDVGGYNYVSWYQQHPGKAPKLMIYEVSNRPSGVSNRFSGSKSGNTASLTISGLQAEDEADYYCSSYTITSTLVFGGGTKLTVLEPKSSDKTHTCPPCPAPEAAGGPSVFLFPPKPKDTLMISRTPEVTCVVVSVSHEDPEVKFNWYVDGVEVHNAKTKPREEQYNSTYRVVSVLTVLHQDWLNGKEYKCKVSNKALPAPIEKTISKAKGQPREPQVYVLPPSREEMTKNQVSLLCLVKGFYPSDIAVEWESNGQPENNYLTWPPVLDSDGSFFLYSKLTVDKSRWQQGNVFSCSVMHEALHNHYTQKSLSLSPG | – | 30 | 156 | 1.3e+06 | 66000 | 0.936 | 0.000492 | 526000 | – | –
4 | PSMB1060 (bispecific antibody, human IgG1, kappa, L234A L235A, HC1 (ZWA): B23B62-Fab; LC2 is NA) heavy: not shown light: not shown EIVLTQSPGTLSVSPGERATLSCRASQSVRSNLAWYQQKPGQAPRLLIYGASTRATGIPARFSGSGSGTEFTLTISSLQSEDFAVYYCHQYNDWPPYTFGQGTKLEIKGGSEGKSSGSGSESKSTGGSQVQLQESGGGVVQPGRSLRLSCAASGFTFSTYGMHWVRQAPGKGLEWVAFISYDGSNKYYADSVKGRFTISRDNSKHTLYLQMNSLRAEDTAVYYCAGRDNLRFLEWFMDVWGQGTTVTVSSEPKSSDKTHTCPPCPAPEAAGGPSVFLFPPKPKDTLMISRTPEVTCVVVSVSHEDPEVKFNWYVDGVEVHNAKTKPREEQYNSTYRVVSVLTVLHQDWLNGKEYKCKVSNKALPAPIEKTISKAKGQPREPQVYVLPPSREEMTKNQVSLLCLVKGFYPSDIAVEWESNGQPENNYLTWPPVLDSDGSFFLYSKLTVDKSRWQQGNVFSCSVMHEALHNHYTQKSLSLSPG | – | 11 | 59 | 1.6e+06 | 86000 | 1.02 | 0.000119 | 117000 | – | –
5 | BC3B51 (bispecific antibody, human IgG1, kappa, L234A L235A, IgG1 BCMAxCD3; HC1: CD3B2030-N106Q HL scFv-Fc; also called BC3B51.001; B2030 HL NtoQ) QVQLVQSGAEVKKPGSSVKVSCKASGYTFTRSTMHWVKQAPGQGLEWIGYINPSSAYTNYNQKFQGRVTLTADKSTSTAYMELSSLRSEDTAVYYCASPQVHYDYQGFPYWGQGTLVTVSSGGSEGKSSGSGSESKSTGGSEIVLTQSPATLSASPGERVTLSCSASSSVSYMNWYQQKPGQAPRRWIYDSSKLASGVPARFSGSGSGRDYTLTISSLEPEDFAVYYCQQWSRNPPTFGGGTKVEIKEPKSSDKTHTCPPCPAPEAAGGPSVFLFPPKPKDTLMISRTPEVTCVVVSVSHEDPEVKFNWYVDGVEVHNAKTKPREEQYNSTYRVVSVLTVLHQDWLNGKEYKCKVSNKALPAPIEKTISKAKGQPREPQVYVYPPSREEMTKNQVSLTCLVKGFYPSDIAVEWESNGQPENNYKTTPPVLDSDGSFALVSKLTVDKSRWQQGNVFSCSVMHEALHNHYTQKSLSLSPG heavy: not shown light: EIVLTQSPGTLSLSPGERATLSCRASQSISSSFLTWYQQKPGQAPRLLIYGASSRATGIPDRFSGGGSGTDFTLTISRLEPEDFAVYYCQHYGSSPMYTFGQGTKLEIKRTVAAPSVFIFPPSDEQLKSGTASVVCLLNNFYPREAKVQWKVDNALQSGNSQESVTEQDSKDSTYSLSSTLTLSKADYEKHKVYACEVTHQGLSSPVTKSFNRGEC | 0.0278 | – | – | – | – | – | – | – | 0.0129 | 1.9
6 | BC3B129 (bispecific antibody, human IgG1, kappa, L234A L235A, IgG1 BCMAxCD3; HC1: CD3B2089-N106S LH scFv-Fc; also called BC3B129.001; B2089 LH NtoS) EIVLTQSPATLSASPGERVTLSCSASSSVSYMNWYQQKPGQAPRRWIYDSSKLASGVPARFSGSGSGRDYTLTISSLEPEDFAVYYCQQWSRNPPTFGGGTKVEIKGGSEGKSSGSGSESKSTGGSQVQLVQSGAEVKKPGSSVKVSCKASGYTFTRSTMHWVRQAPGQGLEWMGYINPSSAYTNYAQKFQGRVTLTADKSTSTAYMELSSLRSEDTAVYYCASPQVHYDYSGFPYWGQGTLVTVSSEPKSSDKTHTCPPCPAPEAAGGPSVFLFPPKPKDTLMISRTPEVTCVVVSVSHEDPEVKFNWYVDGVEVHNAKTKPREEQYNSTYRVVSVLTVLHQDWLNGKEYKCKVSNKALPAPIEKTISKAKGQPREPQVYVYPPSREEMTKNQVSLTCLVKGFYPSDIAVEWESNGQPENNYKTTPPVLDSDGSFALVSKLTVDKSRWQQGNVFSCSVMHEALHNHYTQKSLSLSPG heavy: not shown light: EIVLTQSPGTLSLSPGERATLSCRASQSISSSFLTWYQQKPGQAPRLLIYGASSRATGIPDRFSGGGSGTDFTLTISRLEPEDFAVYYCQHYGSSPMYTFGQGTKLEIKRTVAAPSVFIFPPSDEQLKSGTASVVCLLNNFYPREAKVQWKVDNALQSGNSQESVTEQDSKDSTYSLSSTLTLSKADYEKHKVYACEVTHQGLSSPVTKSFNRGEC | – | – | – | – | – | – | – | – | 10 | 300
